# Laboratory results from patent US10954305B2 (Immunomedics, Inc., priority 2016, dated 2021).
# Key:
# MDA-MB-468 = test: ADCC, LDH-release assay; assay type: cell-based, human; settings: 33.3 nM, E:T 50:1
# Procedure: Briefly, target cells (MDA-MB-468, NIH:OVCAR-3, or BxPC-3) were plated at 1×10^4 cells/well in a 96-well, black, flat-bottom plate and incubated overnight. The next day, peripheral blood mononuclear effector cells (PBMCs) were freshly isolated from a donor and added to assigned wells on the reaction plate at an E:T ratio of 50:1. Acquisition of human PBMCs was done under the approval of the New England Institutional Review Board (Newton, Mass.). Test reagents were added to their assigned wells at a final concentration of 33.3 nM. One set of wells received ADCC assay medium alone for background control and another set of wells received cells alone plus TritonX100 for maximum cells lysis control. The plate was incubated for 4 h at 37° C. After 4 h, target cell lysis was assessed by a homogenous fluorometric LDH release assay (Cyto Tox-One Homogenous Membrane Integrity Assay; Promega, Cat. G7891).
# The plates were read (544 nm-590 nm) using an Envision plate reader (PerkinElmer LAS, Inc.; Shelton, Conn.). Data were analyzed by Microsoft Excel. Percent specific lysis was calculated as follows: […]
# BxPC-3 = test: dsDNA breaks, γH2AX flow cytometry; assay type: cell-based, human; settings: 20 μg/ml for 30 min
# Procedure: For drug activity testing, BxPC-3 cells were seeded in 6-well plates at 5×10^5 cells/well and held at 37° C. overnight. […] The following morning, cells were trypsinized briefly, spun down, stained with Fixable Viability Stain 450 (BD Biosciences, San Jose, Calif.), washed with 1% BSA-PBS, and then fixed in 4% formalin for 15 min, washed again and permeabilized in 0.15% Triton-X100 in PBS for another 15 min. After washing twice with 1% BSA-PBS, cells were incubated with mouse anti-γH2AX-AF488 (EMD Millipore Corporation, Temecula, Calif.) for 45 min at 4° C. The signal intensity of γH2AX was measured by flow cytometry using a BD FACSCanto (BD Biosciences, San Jose, Calif.).
# [1] = target: T1, Trop-2 on multiple cell lines (Homo sapiens, UniProt P09758); test: in vitro cell binding
# T1 construct: endogenous in cells; host or cells: human solid tumour cell lines
# T1 sequence (P09758 27-323): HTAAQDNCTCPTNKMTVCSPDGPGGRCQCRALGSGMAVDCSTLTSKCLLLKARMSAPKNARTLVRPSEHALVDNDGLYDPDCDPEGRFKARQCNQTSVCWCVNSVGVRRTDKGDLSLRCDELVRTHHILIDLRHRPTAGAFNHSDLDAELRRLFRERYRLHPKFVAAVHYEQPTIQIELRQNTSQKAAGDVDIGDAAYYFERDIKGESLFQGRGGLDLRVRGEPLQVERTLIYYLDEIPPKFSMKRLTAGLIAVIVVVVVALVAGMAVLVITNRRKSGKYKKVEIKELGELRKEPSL
# Procedure: LumiGLO Chemiluminescent Substrate System (KPL, Gaithersberg, Md.) was used to detect antibody binding to cells. Briefly, cells were plated into a 96 black-well, flat-clear-bottom plate overnight. Antibodies were serially diluted 1:2 and added in triplicate, yielding a concentration range from 0.03 to 66.7 nM. After incubating for 1 h at 4° C., the media was removed and the cells washed with fresh cold media followed by the addition of a 1:20,000 dilution of goat-antihuman horseradish peroxidase-conjugated secondary antibody (Jackson Immunoresearch, West Grove, Pa.) for 1 h at 4° C. The plates were again washed before the addition of the LumiGLO reagent. Plates were read for luminescence using an Envision plate reader (Perkin Elmer, Boston Mass.). Data were analyzed by non-linear regression to determine the equilibrium dissociation constant (KD). Statistical comparisons of KD-values were made with Prism GraphPad Software (v4.03) (Advanced Graphics Software, Inc.; Encinitas, Calif.) using an F-Test on the best-fit curves for the data. Significance was set at P<0.05.
# [2] = mouse, in vivo, iv, 200 ug
# Description: ELISA was utilized to determine serum concentrations of total hRS7 IgG by competing for the binding to an anti-hRS7 IgG idiotype antibody with a horseradish peroxidase conjugate of hRS7. […] Pharmacokinetic (PK) parameters were computed by noncompartmental analysis using Phoenix WinNonlin software (version 6.3; Pharsight Corp., Mountainview, Calif.).
# Capan-1 xenografts = test: combined radioimmunotherapy and ADC, Capan-1 xenograft; assay type: in vivo, nude mice
# Description: The present study examined combinations of ^90Y-hPAM4 IgG with RS7-SN-38 in nude mice bearing 0.35 cm^3 subcutaneous xenografts of the human pancreatic cancer cell line, Capan-1. […] These studies provide the first evidence that combined radioimmunotherapy and ADC enhances efficacy at safe doses.
# p53 in BxPC-3 and Calu-3 = test: p53 expression; assay type: cell-based, human
# Procedure: In addition, p53 expression in cells exposed to the ADC was higher in both cell lines compared to SN-38 (not shown). […] In terms of later apoptotic events, cleavage of PARP was evident in both cell lines when incubated with either SN-38 or the conjugate (not shown). […] The higher degree of cleavage with free SN-38 over the ADC was consistent with the cytotoxicity findings.
# [3] = Phase I/II clinical trial of IMMU-132, adverse events; assay type: in vivo, human; settings: for dose-limiting toxicity: Phase I
# Description: The maximum tolerated dose (MTD) was judged on the patient's tolerance to the first treatment cycle.
# [4] = system: Capan-1 human pancreatic cancer xenografts; settings: 1 and 6 h
# Procedure: SN-38 accumulation was determined in nude mice bearing Capan-1 human pancreatic cancer xenografts (−0.06-0.27 g). […] This dose is MTD in mice. […] This dose is well below the MTD in mice.
# At 5 different intervals, 3 animals per group were euthanized. […] Serum and tissue homogenates were extracted and analyzed by reversed-phase HPLC (RP-HPLC).
substance,measurement,setting,value
hRS7 IgG,specific lysis,MDA-MB-468,29.8±2.6%
same,Mean Fluorescence Intensity (γH2AX),BxPC-3,2297 ± 18
same,Percent Positive (γH2AX),BxPC-3,13.0 ± 0.6%
same,KD,[1],in the sub-nanomolar range
same,"alpha half-life, hRS7 IgG",[2],approximately 3 h
same,"beta half-life, hRS7 IgG",[2],~200 h
same,anti-tumor activity of unconjugated antibody,Capan-1 xenografts; given alone,Neither unconjugated hPAM4 nor hRS7 antibodies had anti-tumor activity when given alone
same,time to upregulation of p53,p53 in BxPC-3 and Calu-3,48 h
IMMU-132,"grade-3 diarrhea, patients",[3]; 10 mg/kg,1
same,"Dose-limiting toxicity 1st cycle, patients","[3]; 18 mg/kg, 3 treated",2
same,neutropenia >Grade 3,[3]; 49 patients reporting related AE,28%
same,incidence of Grade 3 or higher adverse events other than neutropenia,[3]; 261 patients enrolled,less than 10%
same,"Abdominal pain, Grade 3, n (%)",[3]; N = 47,0
same,"Abdominal pain, Grade 4, n (%)",[3]; N = 47,0
same,"Anemia, Grade 3, n (%)",[3]; N = 47,2 (4%)
same,"Anemia, Grade 4, n (%)",[3]; N = 47,0
same,"Deep vein thrombosis, Grade 3, n (%)",[3]; N = 47,1 (2%)
same,"Deep vein thrombosis, Grade 4, n (%)",[3]; N = 47,0
same,"Diarrhea, Grade 3, n (%)",[3]; N = 47,4 (9%)
same,"Diarrhea, Grade 4, n (%)",[3]; N = 47,0
same,"Dysgeusia, Grade 3, n (%)",[3]; N = 47,0
same,"Dysgeusia, Grade 4, n (%)",[3]; N = 47,0
same,"Fatigue, Grade 3, n (%)",[3]; N = 47,4 (9%)
same,"Fatigue, Grade 4, n (%)",[3]; N = 47,0
same,"Febrile Neutropenia, Grade 3, n (%)",[3]; N = 47,1 (2%)
same,"Febrile Neutropenia, Grade 4, n (%)",[3]; N = 47,2 (4%)
same,"Hypokalemia, Grade 3, n (%)",[3]; N = 47,1 (2%)
same,"Hypokalemia, Grade 4, n (%)",[3]; N = 47,0
same,"Nausea, Grade 3, n (%)",[3]; N = 47,0
same,"Nausea, Grade 4, n (%)",[3]; N = 47,0
same,"Neutropenia, Grade 3, n (%)",[3]; N = 47,11 (24%)
same,"Neutropenia, Grade 4, n (%)",[3]; N = 47,2 (4%)
same,"Pyrexia, Grade 3, n (%)",[3]; N = 47,0
same,"Pyrexia, Grade 4, n (%)",[3]; N = 47,0
same,"Vomiting, Grade 3, n (%)",[3]; N = 47,1 (2%)
same,"Vomiting, Grade 4, n (%)",[3]; N = 47,0
same,"WBC Decrease, Grade 3, n (%)",[3]; N = 47,1 (2%)
same,"WBC Decrease, Grade 4, n (%)",[3]; N = 47,0
same,dose-limiting toxicity,[3],neutropenia
same,dose-limiting toxicity,[3]; listed as sacituzumab govitecan,Neutropenia
same,specific lysis,MDA-MB-468,8.6±2.6%
same,Mean Fluorescence Intensity (γH2AX),BxPC-3,5349 ± 234
same,KD,[1],in the sub-nanomolar range
same,free SN-38G lower than free SN-38 in serum,[4],3- to 7 times
same,"MRT, carrier hRS7 antibody",[2],~300 h
same,"alpha half-life, hRS7 IgG",[2],approximately 3 h
same,"beta half-life, hRS7 IgG",[2],~200 h
same,"half-life, intact conjugate",[2],11 h
same,mice tumor-free after 20 weeks,Capan-1 xenografts; ADC alone,1 of 10
same,time to upregulation of p53,p53 in BxPC-3 and Calu-3,≤ 24 h
